Test results reported in patent publication EP4062934A1 (CentricsBio, Inc., dated 2022).

Target: T1, CD300c antigen (UniProt Q08708 21-183, limits assumed)
T1 construct: also called CD300c protein
T1 sequence (looked up): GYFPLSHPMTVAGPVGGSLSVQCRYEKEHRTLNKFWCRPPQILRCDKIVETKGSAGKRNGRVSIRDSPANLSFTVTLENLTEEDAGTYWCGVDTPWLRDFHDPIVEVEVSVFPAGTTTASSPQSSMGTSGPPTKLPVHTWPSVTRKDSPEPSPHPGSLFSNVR
Test: binding ELISA, antigen coated, anti-Fc HRP detection

EC50: 49.7 µg/mL
B1: anti-CD300c monoclonal antibody CL8 (antibody, V domains shown)
VH: EVQLLESGGGLVQPGGSLRLSCAASGFTFSSYAMSWVRQAPGKGLEWVSAISGSGGSTYYADSVKGRFTISRNNSKNTLYLQMNSLRAEDTAVYYCARSGRYADLTSGGQGTLVTVSS
VL: QSVLTQPPSASGTPGQRVTISCSGSNSNIGNNYVSWYQQLPDTPPKLLIYDNNKRPSGVPDRFSGSKSGTSASLAISGLRSEDEADYYCSSYTSSSTVMFGGGTKLTVL
